The values below come from the supplement of paper PMC9170038.

For this data set, the system named is MS2 coat protein. Briefly: apparent KD of MS2 coat protein; designed switch direction (-1 OFF switch, 1 ON switch): -1; higher = weaker reporter binding. In a few lines:
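Three titration conditions were used: no input, 200 uM small-molecule ligand, and an oligonucleotide input. In each, SNAP-549-labelled MS2 coat protein was raised from 0.7 or 1.5 nM, doubling, to 3 µM over designed RNA switches transcribed on Illumina chips by stalled E. coli RNA polymerase. Curve fits of normalised cluster fluorescence gave values whose per-design median over clusters is the apparent KD.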

The mark [1] stands for this setting: Eterna round: R95, input ligand: FMN 200 uM.
[2] abbreviates: Eterna round: R95, input ligand: microRNA oligo, concentration not stated.
Where [3] appears, read: Eterna round: R95, input ligand: none.
The mark [4] stands for this setting: input ligand: microRNA oligo, concentration not stated.

On to “CGAGUACAUGAGGAUCACCCAUGUUAGGAUAUUGGUAUCAAAAGAGUCCGAUCUGAUCCAAGAAGGAGCAUGCC [Eternabot (L2) Solution 78] (Eterna round: R97, puzzle: Exclusion 1)”, for which the “apparent KD of MS2 coat protein” value is, setting by setting: (input ligand: FMN 200 uM) 32.5 nM; (input ligand: none) 27.1 nM.
On to “GAUUAUGCGAGCUUUAGGGACAUGAGGAUCACCCAUGUUCGUCUUAUUGGUCUGGAUGCACUGACAUACCUAAAUCU [JMF 82] (puzzle: Sensor v3, turn-off variant 1)”, for which the “apparent KD of MS2 coat protein” value is, setting by setting: under setting [1], 17.1 nM; under setting [2], 25.5 nM; under setting [3], 21.5 nM.
On to “ACAUGAGGAUCACCCAUGUCCGGCUGGUCUGUCUCGGCUGUCGAGGAUAUAGCACGGUAUCCGCGCUAGAAGGCGGGAGCCGGA [Aenatbe mod 86] (Eterna round: R96, puzzle: Exclusion NG 3)”, for which the “apparent KD of MS2 coat protein” value by setting is: (input ligand: FMN 200 uM) 120 nM; under setting [4], 47.1 nM; (input ligand: none) 38.8 nM.
Consider “CUUUGGGCAGGAUAUGCUGUUUGUGACAUGAGGAUCACCCAUGUGAUGCAGUUUGGGUGUGCAGAAGGGCCUGAGA [JR_E5_Sub030] (puzzle: Exclusion 5)”, for which the “apparent KD of MS2 coat protein” value by setting is: under setting [1], 115 nM; under setting [2], 72.6 nM; under setting [3], 110 nM.
“AGCUGUGGCCAAGGAUAUCCAACCUUAAAUACCGACGUAUAGUCGGACAUGAGGAUCACCCAUGUGGAGAAGGUGGUCUCAGCA [Eli eng2 - 042] (Eterna round: R96, puzzle: Exclusion NG 2)”: the “apparent KD of MS2 coat protein” value by setting is: (input ligand: FMN 200 uM) 52.2 nM; under setting [4], 33.7 nM; (input ligand: none) 30.1 nM.
“AGUUGGCGAGGAUAUACAUGAGGAUCACCCAUGUGAGAGAGACUAGUGAGGUCGAUUAGUAGAAGGCGCUGACA [Mat X3R4 m11] (Eterna round: R97, puzzle: Exclusion 3)”: the “apparent KD of MS2 coat protein” value reads like this: (input ligand: FMN 200 uM) 455 nM; (input ligand: none) 29.3 nM.
With “GGCAUGUGAGGAUAUGCGAAGGGAAGGAGAGGGAAAGAGAAGCAGAAGGCACAUGAGGAUCACCCAUGUAAGGG [AK-MS2ROC-r4-exclusion4-8] (Eterna round: R97, puzzle: Exclusion 4)”, the “apparent KD of MS2 coat protein” value (input ligand: FMN 200 uM) amounted to 34.1 nM and the “apparent KD of MS2 coat protein” value (input ligand: none) came out at 203 nM.
“GACUUCUGAGGAUAUACAUAGAUUUACAUGAGGAUCACCCAUGUUCCUCUAUGUAUAAAUGUAGAAGGCAGAAGAA [Mat - Exclusion 5 - JL Mod - D64] (Eterna round: R97, puzzle: Exclusion 5)”: the “apparent KD of MS2 coat protein” value (input ligand: FMN 200 uM) is 66.8 nM and the “apparent KD of MS2 coat protein” value (input ligand: none) came out at 15.5 nM.
“UAGAAACAUGAGGAUCACCCAUGUGAGGAUAUGAAAAAGAAAAGAAAAGAAAGAAGAAUCAGAAGGCACAAAGC [salish99-ex1_r3_092] (puzzle: Exclusion 1)”: the “apparent KD of MS2 coat protein” value under setting [1] was determined as 28.6 nM, the “apparent KD of MS2 coat protein” value under setting [2] turned out to be 17.7 nM and the “apparent KD of MS2 coat protein” value under setting [3] amounted to 36.6 nM.
Take “AGAUCUGCAGGAUAUGGUUUUCGUGACAUGAGGAUCACCCAUGUCUUAUGUCCGCAUGUUUCAGAAGGGCAGGACG [Eternabot (L1) Solution 71] (Eterna round: R97, puzzle: Exclusion 5)”: the “apparent KD of MS2 coat protein” value (input ligand: FMN 200 uM) is 74.3 nM and the “apparent KD of MS2 coat protein” value (input ligand: none) worked out at 27.8 nM.
Turning to “CAUUAUUAUCGAGGAUAUCCUAUUGAAAUUCUGGGAGAAGGCGGACUCAACAUGAGGAUCACCCAUGUGGGACGGAUGCUGGGA [salish99_exng1_r04_604] (Eterna round: R96, puzzle: Exclusion NG 1)”, the “apparent KD of MS2 coat protein” value (input ligand: FMN 200 uM) was 18 nM, the “apparent KD of MS2 coat protein” value under setting [4] was determined as 20.9 nM and the “apparent KD of MS2 coat protein” value (input ligand: none) turned out to be 21 nM.
As to “UGUUGUCGCGCAGGAUAUGAGGAUCACCCAUAGAAGGAUAUCGAAAGAGAAGGUCUGAGGAUUACCCAGAAGGGCGGGACAACU [pwkr exNG2 2xF5 2xFMN.13] (Eterna round: R96, puzzle: Exclusion NG 2)”, the “apparent KD of MS2 coat protein” value runs as follows: (input ligand: FMN 200 uM) 807 nM; under setting [4], 133 nM; (input ligand: none) 137 nM.
Turning to “GAACUGAAGCAUAGCUUUAGUCGUACAUGAGGAUCACCCAUGUAGGAUAUGGUAGGCAUAGCUUACUAGAAGGAUAGAGUGAUC [Mat - Exclusion NG 3 - Mod of JL - D73] (Eterna round: R96, puzzle: Exclusion NG 3)”, the “apparent KD of MS2 coat protein” value (input ligand: FMN 200 uM) was determined as 595 nM, the “apparent KD of MS2 coat protein” value under setting [4] turned out to be 411 nM and the “apparent KD of MS2 coat protein” value (input ligand: none) amounted to 243 nM.
Consider “CGUAGCAAAGUGAGGAUAUCUAGAGCUUCGGCUCUAGAGAAGGCACAUGAGGAUCACCCAUGUGAUUAGCUACG [BmEx4/9-A1] (Eterna round: R97, puzzle: Brourd's mod of Exclusion 4)”, for which the “apparent KD of MS2 coat protein” value runs as follows: (input ligand: FMN 200 uM) 152 nM; (input ligand: none) 29.8 nM.
Consider “AGUCCUGGAGUUAGGAUAUGGAGUAUCACUGCGCUUCAGAAGGGACUUGAGGAUCACCCAAGUAGCCGUGAGGG [salish99_bmod_ex4_r4_005] (Eterna round: R97, puzzle: Brourd's mod of Exclusion 4)”, for which the “apparent KD of MS2 coat protein” value is, setting by setting: (input ligand: FMN 200 uM) 98.5 nM; (input ligand: none) 59.4 nM.
In the case of “GGUCGGCGAGGAUAUACAUGAGGAUCACCCAUGUGAGAUAGUGCACGCGUACGUGUACGUAGAAGGCGCUGACG [JL-ex3-3.25 salish99 mod] (puzzle: Exclusion 3)”, the “apparent KD of MS2 coat protein” value under setting [1] was 26.1 nM, the “apparent KD of MS2 coat protein” value under setting [2] was 12.4 nM and the “apparent KD of MS2 coat protein” value under setting [3] came to 8.3 nM.
As for “GCAAGCUUAGGAUAUACAUGAGGAUCACCCAUGUCGUGAAUUUCGAUGCUUAAUGGCGGUAGAAGGAGGCUUGA [Eternabot (L2) Solution 12] (Eterna round: R97, puzzle: Exclusion 3)”, the “apparent KD of MS2 coat protein” value turned out to be 31.2 nM (input ligand: FMN 200 uM) and 18.8 nM (input ligand: none).
For “AAAAAACAUGAGGAUCACCCAUGUAAGGAUAUGCUGAAAAACACGGAAAAAACGUGCAGCAGAAGGUACAAAAG [Mat - Exclusion 1 - Eli mod - D90] (Eterna round: R96, puzzle: Exclusion 1)”, the “apparent KD of MS2 coat protein” value runs as follows: (input ligand: FMN 200 uM) 100 nM; under setting [4], 55 nM; (input ligand: none) 61.6 nM.
Consider “ACUCAGUGAGGAUAUCGCCAGAGAGCCGUGACGGCUCCUGAUGAGAAGGCACAUGAGGAUCACCCAUGUAAGCA [EX4 C.7] (Eterna round: R97, puzzle: Exclusion 4)”, for which the “apparent KD of MS2 coat protein” value was 204 nM (input ligand: FMN 200 uM) and 134 nM (input ligand: none).
“AAAGAACAUGAGGAUCACCCAUGUAAGGAUAUGCAAAGAAAGAAAGAAGAAAGAGAAAGCAGAAGGUACAAGAA [JR_Exclu1_Sub071] (puzzle: Exclusion 1)”: the “apparent KD of MS2 coat protein” value runs as follows: under setting [1], 34.4 nM; under setting [2], 44.1 nM; under setting [3], 36.8 nM.
Regarding “GGAAGGUCAGGAUAUGCGAGGGAGUGGGAAGUAGCAUGGUAGCAGAAGGGACAUGAGGAUCACCCAUGUUAGGA [JR_Exclu4_Sub0102] (puzzle: Exclusion 4)”, the “apparent KD of MS2 coat protein” value was 35.2 nM under setting [1], 28.7 nM under setting [2] and 40.7 nM under setting [3].
On to “GUGUAGAUAGGAUAUACGUGAGUCUAGCGAAGCUAGAUUCUACAUGAGGAUCACCCAUGUAGAAGGGUCUACAC [Fiskers Ex 2 - 27] (puzzle: Exclusion 2)”, for which the “apparent KD of MS2 coat protein” value under setting [2] was determined as 15.1 nM.
